What was measured:
[1] = target: S500D-eEF-2K, phosphorylated at T348 (S500D-eEF-2K^p) (UniProt O00418)
[2] = target: eukaryotic elongation factor-2 kinase, wild type, phosphorylated at T348 (eEF-2K^p) (UniProt O00418)

With “calmodulin (CaM) (from UniProt P0DP23 1-149) (natural protein)” the Ca^2+/CaM-dependent kinase activity kobs (2 μM CaM, 450 μM PepS peptide substrate) [1] was 33 s⁻¹ and the Ca^2+/CaM-dependent kinase activity kobs (2 μM CaM, 450 μM PepS peptide substrate) [2] was 40 s⁻¹.
